{"source": "patent US20210261648A1", "about": "(published 2021)", "key": {"FcγRIIb [1]": {"target": "T1, FcγRIIb (human, UniProt P31994 43-217)", "T1 construct": "extracellular domain; also called FcgRIIb; CD32B", "T1 sequence (looked up)": "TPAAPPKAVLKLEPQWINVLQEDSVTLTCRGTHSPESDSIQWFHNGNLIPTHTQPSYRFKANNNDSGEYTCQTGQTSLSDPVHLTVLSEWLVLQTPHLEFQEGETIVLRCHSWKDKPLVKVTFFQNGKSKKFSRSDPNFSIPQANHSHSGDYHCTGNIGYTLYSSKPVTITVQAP", "assay": "SPR (Biacore); parent = IL6R-B3/IL6R-L"}, "FcγRIIa type R [2]": {"target": "T2, FcγRIIa type R (human, UniProt P12318 34-217)", "T2 chain": "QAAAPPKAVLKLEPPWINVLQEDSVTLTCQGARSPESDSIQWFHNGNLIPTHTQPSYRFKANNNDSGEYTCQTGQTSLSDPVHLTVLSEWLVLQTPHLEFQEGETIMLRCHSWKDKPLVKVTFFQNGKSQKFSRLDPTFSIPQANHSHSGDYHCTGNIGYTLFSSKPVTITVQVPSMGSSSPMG", "assay": "SPR (Biacore); parent = IL6R-B3/IL6R-L"}, "FcγRIa": {"target": "T3, FcγRIa (human, UniProt P12314 16-292)", "T3 construct": "Whole entry named; also called FcgRIa; CD64A", "T3 sequence (P12314 16-292)": "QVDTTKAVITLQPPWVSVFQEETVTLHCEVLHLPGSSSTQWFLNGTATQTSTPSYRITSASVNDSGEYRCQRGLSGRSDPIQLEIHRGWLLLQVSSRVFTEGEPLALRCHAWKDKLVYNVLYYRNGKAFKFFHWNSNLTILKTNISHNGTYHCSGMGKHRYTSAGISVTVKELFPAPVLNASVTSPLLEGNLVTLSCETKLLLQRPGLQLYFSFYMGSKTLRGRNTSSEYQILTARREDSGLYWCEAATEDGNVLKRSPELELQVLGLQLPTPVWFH", "assay": "SPR (Biacore), captured antibody, soluble FcγR"}, "FcγRIIa type H": {"target": "T4, FcγRIIa type H (human, UniProt P12318 34-217)", "T4 construct": "extracellular domain; also called FcγRIIaH; FcgRIIaH", "T4 sequence (looked up)": "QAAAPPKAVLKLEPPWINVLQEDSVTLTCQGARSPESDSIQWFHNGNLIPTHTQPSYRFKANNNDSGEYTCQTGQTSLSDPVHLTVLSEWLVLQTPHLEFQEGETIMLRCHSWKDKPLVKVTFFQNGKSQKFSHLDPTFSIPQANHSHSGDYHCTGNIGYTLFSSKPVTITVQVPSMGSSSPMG", "assay": "SPR (Biacore), captured antibody, soluble FcγR"}, "FcγRIIb [3]": {"target": "T1, FcγRIIb", "assay": "SPR (Biacore), captured antibody, soluble FcγR"}, "FcγRIIa type R [4]": {"target": "T2, FcγRIIa type R", "assay": "SPR (Biacore), captured antibody, soluble FcγR"}, "[5]": {"target": "T5, FcγRIa extracellular domain with C-terminal His tag (human, UniProt P12314 16-292)", "T5 construct": "also called FcgRIa; not shown: His tag attached to the C terminus", "T5 sequence (P12314 16-292)": "as the sequence (P12314 16-292) above", "assay": "SPR binding amount, relative to IL6R-BF648/IL6R-L"}, "[6]": {"target": "T6, FcγRIIa type H extracellular domain with C-terminal His tag (human, UniProt P12318 34-217)", "T6 construct": "extracellular domain; also called FcγRIIaH; FcgRIIaH; not shown: His tag attached to the C terminus", "T6 sequence (looked up)": "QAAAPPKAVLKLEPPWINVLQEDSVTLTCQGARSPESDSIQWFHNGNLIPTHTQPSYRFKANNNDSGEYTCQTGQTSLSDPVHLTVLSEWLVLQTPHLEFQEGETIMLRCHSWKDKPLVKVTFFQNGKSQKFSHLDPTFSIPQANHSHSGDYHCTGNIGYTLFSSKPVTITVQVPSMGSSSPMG", "assay": "SPR binding amount, relative to IL6R-BF648/IL6R-L"}, "[7]": {"target": "T7, FcγRIIb extracellular domain with C-terminal His tag (human, UniProt P31994 43-217)", "T7 construct": "extracellular domain; For crystallography it was expressed with kifunensine and trimmed with Endo F1; also called FcgRIIb; FcγRIIb extracellular region; not shown: His tag attached to the C terminus", "T7 sequence (looked up)": "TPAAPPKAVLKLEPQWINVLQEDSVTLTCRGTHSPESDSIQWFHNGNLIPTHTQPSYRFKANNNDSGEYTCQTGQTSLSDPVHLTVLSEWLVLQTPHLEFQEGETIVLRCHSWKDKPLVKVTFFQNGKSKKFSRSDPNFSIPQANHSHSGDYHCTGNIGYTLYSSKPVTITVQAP", "assay": "SPR binding amount, relative to IL6R-BF648/IL6R-L"}}, "data": [{"binder": "IL6R-BP551/IL6R-L (antibody, human IgG1, kappa, Alterations in EU numbering, introduced into IL6R-B3) heavy: QVQLQESGPGLVKPSETLSLTCAVSGHSISHDHAWSWVRQPPGEGLEWIGFISYSGITNYNPSLQGRVTISRDNSKNTLYLQMNSLRAEDTAVYYCARSLARTTAMDYWGEGTLVTVSSASTKGPSVFPLAPSSKSTSGGTAALGCLVKDYFPEPVTVSWNSGALTSGVHTFPAVLQSSGLYSLSSVVTVPSSSLGTQTYICNVNHKPSNTKVDKKVEPKSCDKTHTCPPCPAPELLGDDSVFLFPPKPKDTLMISRTPEVTCVVIDVSEEDGDVKFNWYVDGVEVHNAKTKPREEQDNSTYRVVSVLTVLHQDWLNGKEYKCKVSNKALPRPIEKTISKAKGQPREPQVYTLPPSRDELTKNQVSLTCLVKGFYPSDIAVEWESNGQPENNYKTTPPVLDSDGSFFLYSKLTVDKSRWQQGNVFSCSVMHEALHNHYTQESLSLSP light: not shown", "values": [{"measurement": "KD(IIb) of the parent polypeptide/KD(IIb) of the altered polypeptide", "setting": "FcγRIIb [1]", "result": 482, "unit": "fold"}, {"measurement": "KD(IIaR) of the parent polypeptide/KD(IIaR) of the altered polypeptide", "setting": "FcγRIIa type R [2]", "result": 4.5, "unit": "fold"}, {"measurement": "Kd", "setting": "FcγRIa", "result": 32, "unit": "nM"}, {"measurement": "Kd", "setting": "FcγRIIa type H", "result": 2800, "unit": "nM"}, {"measurement": "Kd", "setting": "FcγRIIb [3]", "result": 6.4, "unit": "nM"}, {"measurement": "Kd", "setting": "FcγRIIa type R [4]", "result": 250, "unit": "nM"}]}, {"binder": "IL6R-BP556/IL6R-L (antibody, human IgG1, kappa, Alterations in EU numbering, introduced into IL6R-B3) heavy: QVQLQESGPGLVKPSETLSLTCAVSGHSISHDHAWSWVRQPPGEGLEWIGFISYSGITNYNPSLQGRVTISRDNSKNTLYLQMNSLRAEDTAVYYCARSLARTTAMDYWGEGTLVTVSSASTKGPSVFPLAPSSKSTSGGTAALGCLVKDYFPEPVTVSWNSGALTSGVHTFPAVLQSSGLYSLSSVVTVPSSSLGTQTYICNVNHKPSNTKVDKKVEPKSCDKTHTCPPCPAPELLGDDSVFLFPPKPKDTLMISRTPEVTCVVIDVGEEDGEVKFNWYVDGVEVHNAKTKPREEQDNSTYRVVSVLTVLHQDWLNGKEYKCKVSNKALPRPIEKTISKAKGQPREPQVYTLPPSRDELTKNQVSLTCLVKGFYPSDIAVEWESNGQPENNYKTTPPVLDSDGSFFLYSKLTVDKSRWQQGNVFSCSVMHEALHNHYTQESLSLSP light: not shown", "values": [{"measurement": "KD(IIb) of the parent polypeptide/KD(IIb) of the altered polypeptide", "setting": "FcγRIIb [1]", "result": 370, "unit": "fold"}, {"measurement": "KD(IIaR) of the parent polypeptide/KD(IIaR) of the altered polypeptide", "setting": "FcγRIIa type R [2]", "result": 3.7, "unit": "fold"}, {"measurement": "Kd", "setting": "FcγRIa", "result": 43, "unit": "nM"}, {"measurement": "Kd", "setting": "FcγRIIa type H", "result": 5800, "unit": "nM"}, {"measurement": "Kd", "setting": "FcγRIIb [3]", "result": 8.4, "unit": "nM"}, {"measurement": "Kd", "setting": "FcγRIIa type R [4]", "result": 300, "unit": "nM"}]}, {"binder": "IL6R-2B002/IL6R-L (antibody, human IgG1, kappa, Alterations introduced into IL6R-B3) heavy: QVQLQESGPGLVKPSETLSLTCAVSGHSISHDHAWSWVRQPPGEGLEWIGFISYSGITNYNPSLQGRVTISRDNSKNTLYLQMNSLRAEDTAVYYCARSLARTTAMDYWGEGTLVTVSSASTKGPSVFPLAPSSKSTSGGTAALGCLVKDYFPEPVTVSWNSGALTSGVHTFPAVLQSSGLYSLSSVVTVPSSSLGTQTYICNVNHKPSNTKVDKKVEPKSCDKTHTCPPCPAPDLLGGDSVFLFPPKPKDTLMISRTPEVTCVVVDVSHEDPEVKFNWYVDGVEVHNAKTKPREEQYNSTYRVVSVLTVLHQDWLNGKEYKCKVSNKALPAPIEKTISKAKGQPREPQVYTLPPSRDELTKNQVSLTCLVKGFYPSDIAVEWESNGQPENNYKTTPPVLDSDGSFFLYSKLTVDKSRWQQGNVFSCSVMHEALHNHYTQESLSLSP light: not shown", "values": [{"measurement": "relative binding activity (IL6R-BF648/IL6R-L = 100)", "setting": "[5]", "result": 118}, {"measurement": "relative binding activity (IL6R-BF648/IL6R-L = 100)", "setting": "[6]", "result": 147}, {"measurement": "relative binding activity (IL6R-BF648/IL6R-L = 100)", "setting": "[7]", "result": 116}]}, {"binder": "IL6R-2B128/IL6R-L (antibody, human IgG1, kappa, Alterations introduced into IL6R-B3) heavy: QVQLQESGPGLVKPSETLSLTCAVSGHSISHDHAWSWVRQPPGEGLEWIGFISYSGITNYNPSLQGRVTISRDNSKNTLYLQMNSLRAEDTAVYYCARSLARTTAMDYWGEGTLVTVSSASTKGPSVFPLAPSSKSTSGGTAALGCLVKDYFPEPVTVSWNSGALTSGVHTFPAVLQSSGLYSLSSVVTVPSSSLGTQTYICNVNHKPSNTKVDKKVEPKSCDKTHTCPPCPAPELLGGDSVFLFPPKPKDTLMISRTPEVTCVVVDVSHEDPEVKFNWYVDGVEVHNAKTKPREEQDNSTYRVVSVLTVLHQDWLNGKEYKCKVSNKALPAPIEKTISKAKGQPREPQVYTLPPSRDELTKNQVSLTCLVKGFYPSDIAVEWESNGQPENNYKTTPPVLDSDGSFFLYSKLTVDKSRWQQGNVFSCSVMHEALHNHYTQESLSLSP light: not shown", "values": [{"measurement": "relative binding activity (IL6R-BF648/IL6R-L = 100)", "setting": "[5]", "result": 95}, {"measurement": "relative binding activity (IL6R-BF648/IL6R-L = 100)", "setting": "[6]", "result": 37}, {"measurement": "relative binding activity (IL6R-BF648/IL6R-L = 100)", "setting": "[7]", "result": 103}]}]}
